The text below walks through data of patent US20230257458A1 (SUNSHINE LAKE PHARMA, published 2023).

Positions count from the first letter of the chain named.

Test [1] addresses T1, IL-11 protein (UniProt P20809 22-199, limits assumed).
T1 construct: also called IL-11 antigen
T1 sequence (looked up): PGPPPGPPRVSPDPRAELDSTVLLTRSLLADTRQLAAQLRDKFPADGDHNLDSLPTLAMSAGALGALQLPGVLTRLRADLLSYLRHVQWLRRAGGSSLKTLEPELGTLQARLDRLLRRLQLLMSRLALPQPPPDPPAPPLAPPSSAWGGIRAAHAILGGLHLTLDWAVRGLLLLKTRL
The test is described as follows: ELISA, monoclonal hybridoma supernatant on IL-11. The source says: (§1) Cell lines with high secretion of specific antibody were selected for expanded culture and cryopreservation.
(In general: In an ELISA, binding on a coated surface is turned into a signal by an enzyme label.)

Test [2] has as its target T1, IL-11 protein. The test is described as follows: flow competition: IL-11 + antibody on IL-11R cells; lower = more blocking.
Text: as §1

The target in test [3] is T1, IL-11 protein. The test is described as follows: SPR (Biacore), IgG captured, IL-11 6.25-400 nM as analyte. As for the experimental part:
The measure method included the steps of capturing the humanized antibody at a flow rate of 10 ul/min. […] Finally the chip was regenerated with 10 mM glycine buffer.

The target of test [4] is T2, IL-11-Fc protein (UniProt P20809 22-199, limits assumed).
T2 construct: also called IL-11 recombinant protein with Fc tag; not shown: Fc tag
T2 sequence (looked up): T1 sequence (looked up)
The experiment in a line: flow competition: IL-11-Fc + antibody dilutions on membrane-IL-11R CHO cells. As for the experimental part: Then the plate was incubated with 1.5*10\hat{ }5 membrane-IL-11R CHO cells (100 ul/well) for 1 h at room temperature. After incubation, the plate was centrifuged at 1500 rpm for 5 min, washed three times with PBS, and 1:400 diluted flow secondary antibody Goat-anti-Fc-FITC (Abcam, ab98529) was added with 200 ul/well. Then, the plate was incubated at 4° C. for 1 h, centrifuged at 1500 rpm for 5 min, washed three times with PBS, resuspended cells in 180 ul PBS, and detected by flow cytometry.

B1: 3-7C9-1A6 (antibody, human IgG1, kappa, V domains shown)
VH: QVQLKQSGPGLVQPSQSLSITCTVSGFSLTNYGVHWVRQSPGKGLEWLGAIWRGGSTDYNAAFMSRLSITKDNSKSQVFFKMNSLQPDDTAIYYCAKNLYGPAAMDYWGQGTSVTVSS
VL: DIQMNQSPSSLSASLGDTITITCHANQNIYVWLSWYQQKPGNIPKLLIYEASNLHTGVPSRFSGSGSGTGFTLTISSLQPEDIATYYCQQGQSYPYTFGGGTKLEIKR
The molecule B1 displayed an OD450 in test [1] of 1.6. Further, the “FITC Mean” value in test [2] came out at 3150.

B2: humanized antibody VH1+VL2, full-length (IgG format) (antibody, V domains shown)
VH: QVQLVQSGAEVKKPGASVKVSCKASDYTFTNYWLGWVRQAPGQGLEWMGHIYPGGGYTNYNEKFKGRVTMTRDTSTSTVYMELSSLRSEDTAVYYCARVRSGNDALDFWGQGTLVTVSS
VL: EIVLTQSPATLSLSPGERATLSCRASESVDEYGISFMNWYQQKPGQAPRLLIYSASNQGSGIPARFSGSGSGTDFTLTISSLEPEDFAVYFCQQSKEVPWTFGGGTKLEIK
One may read the Kd as a measure of binding affinity in units of concentration. The term koff denotes the first-order rate constant of dissociation. In general, kon refers to the second-order rate constant of association. For orientation: EC50 means the concentration giving half of the maximal effect. Take B2: in test [3], the Kd amounted to 12 nM, the off-rate (koff) turned out to be 0.000597 s⁻¹ and the kon was 49800 M⁻¹ s⁻¹. Moreover, the EC50 in test [4] was 11.6 µg/mL.

B3: humanized antibody VH1+VL4, full-length (IgG format) (antibody, V domains shown)
VH: B2 VH
VL: B2 VL with Y40F, V89M
In the case of B3, in test [3], binding was put at a Kd of 10 nM, the koff was 0.000545 s⁻¹ and the kon was found to be 54300 M⁻¹ s⁻¹. Besides, the EC50 in test [4] was found to be 12.5 µg/mL.

B4: humanized antibody VH1+VL3, full-length (IgG format) (antibody, V domains shown)
VH: B2 VH
VL: B2 VL with Y40F
In test [3], B4 came in with a Kd of 9.03 nM, an off-rate constant (koff) of 0.000474 s⁻¹ and a kon of 52600 M⁻¹ s⁻¹. For the same molecule, the concentration giving a half-maximal response (EC50) in test [4] is 10.5 µg/mL.

B5: 3-9E1-3A2 (antibody, human IgG1, kappa, V domains shown)
VH: QIQLVQSGPELKKPGETVNISCRASGDTFTNYAVNWVKQAPGKGLKWMGWIDTYTGDPTYADDLKGRFAFSLETSATTAYLQINNLKNEDTATYFCAGDTWFAYWGQGTLVTVSA
VL: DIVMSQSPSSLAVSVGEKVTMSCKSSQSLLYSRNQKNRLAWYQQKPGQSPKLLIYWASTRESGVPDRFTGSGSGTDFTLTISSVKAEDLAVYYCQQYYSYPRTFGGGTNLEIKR
With B5, the OD450 in test [1] worked out at 1.54. Further, in test [2], the “FITC Mean” value was 9070.

B6: 3-15D5-3A6 (antibody, human IgG1, kappa, V domains shown)
VH: QVTLKESGPGILQPSQTLSLTCSFSGFSLSSSGMSVGWIRQPSGKGLEWLAHIWWSDDKSYNPALKSRLTISKDTSNNQVFLKIASVVTADTATYYCAREGSLGYGLDYWGQGTTLTVSS
VL: DVLMTQTPLSLPVSLGDQASISCRSSQSIVHTDGNTYLEWYLQKPGQSPKLLIYKVSNRFSGVPDRFSGSGSGTDFTLKISRVEAEDLGVYYCFQGSHVPWTFGGGTKLEIKR
For the molecule B6, in test [1], the OD450 was determined as 1.69. Besides, in test [2], the “FITC Mean” value stood at 10900.

B7: 3-2B5-3D2 (antibody, human IgG1, kappa, V domains shown)
VH: QVQLKQSGPGLVLPSQSLSITCTVSGFSLTSYGVHWFRQSPGTGLEWLGVIWSGGITDYNATFIPRLSISKDNSKSQVFFKMNSLQADDTAIYYCARNFDGYYYSIDYWGQGTSVTVSS
VL: DIQMTQTTSSLSASLGDRVTISCRASQDISNSLNWYQQKPDGTVKLLIYYTSRLHSGVPSRFTGSGSGTDYSLTISNLEQEDIATYFCQQGNTLPLTFGAGTKLELKR
As to B7, the OD450 in test [1] worked out at 1.61. In addition, the “FITC Mean” value in test [2] was determined as 15300.

B8: 3-15D5-6A1 (antibody, human IgG1, kappa, V domains shown)
VH: EVKLLESGGGLVQPGGSLKLSCAASGFDFRRYWMSWVRQAPGKGLEWIGQINPDSSMINYTPSLKDKFIISRDNAKNTLYLQMSEVRSEDTALYYCATYGHHATDSWGQGTSVTVSS
VL: DIVLTQSPASLAVSLGQRATISCRASESVDSYGNSFMHWYQQKPGQPPKLLIYRASNLESGIPARFSGSGSRTDFTLTINPVEADDVATYYCQQSNEDPFTFGSGTKLEIKR
B8 displayed an OD450 in test [1] of 1.51. Also, the “FITC Mean” value in test [2] is 13600.
